Like-named read-outs stand apart in the source and are kept apart here.

In test [1] the target is T1, SARS-CoV-2 Wuhan-Hu-1 receptor-binding domain (RBD), S protein residues 319-539 (SARS-CoV-2 Wuhan-Hu-1, UniProt P0DTC2).
Test [2] addresses T1, SARS-CoV-2 Wuhan-Hu-1 receptor-binding …. As to the kind of experiment: BLI. The settings on record: both partners purified.

B1: AZ229 (antibody, V domains shown)
VH: EVQLVESGGGLVQPGGSLRLSCAASGFTFSSDDMHWVRQATGKGLEWVSAIGTSGDTYYSESVKGRFTISRDNAKSSLYLQMNSLRAGDTAVYYCARGRVYDGPTSDRHYYYYVMDLWGHGTTVAVSS
VL: DIQMTQSPSSLSASVGDRVTITCRASQSINKYLNWYQQKPGKAPKLLIYAASSLQGGVPSRFSGSGSGTDFTLTITTLQPEDFATYYCQQSYSAPPWTFAQGTKVEIK
Regarding B1, the binding result in test [1] was “binds”.

B2: AZ090 IgG (antibody, V domains shown)
VH: QVQLVQSGPEVKKPGTSVKVSCKASQFTFSISAVQWVRQARGQRLEWMGWIVVGSGNTDYAQRFQERVTISRDMSAGTVYMELRSLRSEDTAVYYCAAPYCNKTNCRDGFDMWGQGTMVTVSS
VL: EIVLTQSPGTLSLSPGERATLSCRASQSVSSSYLAWYQQKPGQAPRLLIYGASRRATGIPDRFSGSASGTDFILTISRLEPEDFAVYYCQQYRNSPWTFGQGTKVEIK
On to B2, for which the binding result in test [2] was “binds”.

B3: C105 (antibody, V domains shown)
VH: QVQLVESGGGLIQPGGSLRLSCAASGFTVSSNYMSWVRQAPGKGLEWVSVIYSGGSTYYADSVKGRFTISRDNSKNTLYLQMNSLRAEDTAVYYCARGEGWELPYDYWGQGTLVTVSS
VL: QSALTQPPSASGSPGQSVTISCTGTSSDVGGYKYVSWYQQHPGKAPKLMIYEVSKRPSGVPDRFSGSKSGNTASLTVSGLQAEDEADYYCSSYEGSNNFVVFGGGTKLTVL
B3: the binding result in test [2] is listed as “binds”.

For the origin of these results see PMC9418484 (The Journal of Experimental Medicine, 2022).
